Assays:
[1] = biological target: T1, c-Met-Fc (#358-MT/CF, R&D Systems) (human, UniProt P08581 25-932); experiment: SPR, Biacore T100; ME-03S captured on human Fab binder, c-Met-Fc injected
T1 construct: also called human c-Met/Fc fusion protein (R&D Systems); not shown: Fc part of the bought fusion
Procedure: (§1) In addition, the affinities of the prepared anti-c-Met/anti-EGFR bispecific antibody toward two types of antigens (c-Met/EGFR) were each identified using Biacore T100 (GE). A human Fab binder (GE Healthcare) was immobilized at the surface of a CM5 chip (#BR-1005-30, GE) according to the manufacturer's specifications. […] 10 mM Glycine-HCl (pH 1.5) solution was injected thereto to regenerate the surface. In order to measure affinity, the data obtained from this experiment was fitted using BIAevaluation software (GE Healthcare, Biacore T100 evaluation software).

[2] = biological target: T2, EGFR-Fc (#344-ER, R&D Systems) (UniProt P00533 25-645); experiment: SPR, Biacore T100; ME-03S captured on human Fab binder, EGFR-Fc injected
T2 construct: Bought reagent; not shown: Fc part of the bought fusion
Procedure: as §1

T1 sequence (P08581 25-932 limits assumed): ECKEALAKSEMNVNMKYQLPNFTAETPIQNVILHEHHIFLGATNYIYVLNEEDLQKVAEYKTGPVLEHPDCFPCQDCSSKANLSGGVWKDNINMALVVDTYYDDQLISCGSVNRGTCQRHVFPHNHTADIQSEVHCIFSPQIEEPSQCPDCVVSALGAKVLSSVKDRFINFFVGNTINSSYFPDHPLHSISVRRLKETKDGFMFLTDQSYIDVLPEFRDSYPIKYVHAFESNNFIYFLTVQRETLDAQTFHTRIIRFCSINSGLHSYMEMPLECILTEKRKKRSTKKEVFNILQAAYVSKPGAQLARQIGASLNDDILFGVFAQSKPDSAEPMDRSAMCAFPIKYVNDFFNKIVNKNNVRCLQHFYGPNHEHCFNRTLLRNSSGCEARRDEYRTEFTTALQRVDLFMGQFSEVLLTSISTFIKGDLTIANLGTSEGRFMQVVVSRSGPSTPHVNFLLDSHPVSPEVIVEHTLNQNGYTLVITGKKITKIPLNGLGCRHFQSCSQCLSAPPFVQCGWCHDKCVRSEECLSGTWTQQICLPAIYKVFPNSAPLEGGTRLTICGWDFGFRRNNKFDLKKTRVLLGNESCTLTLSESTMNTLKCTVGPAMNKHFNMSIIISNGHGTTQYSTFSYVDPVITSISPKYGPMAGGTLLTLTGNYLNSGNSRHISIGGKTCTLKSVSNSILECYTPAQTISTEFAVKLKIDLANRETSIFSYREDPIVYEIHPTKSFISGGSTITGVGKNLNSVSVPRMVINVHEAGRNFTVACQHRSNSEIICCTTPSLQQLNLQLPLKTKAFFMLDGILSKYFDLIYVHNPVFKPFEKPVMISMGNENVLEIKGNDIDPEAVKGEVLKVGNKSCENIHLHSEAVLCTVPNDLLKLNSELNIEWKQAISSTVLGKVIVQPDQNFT

Kd [1]: 0.14 nM | koff [1]: 9.3e-05 s⁻¹ | kon [1]: 660000 M⁻¹ s⁻¹ | Kd [2]: 0.12 nM | koff [2]: 2.7e-05 s⁻¹ | kon [2]: 240000 M⁻¹ s⁻¹
B1: anti-c-Met/anti-EGFR bispecific antibody ME-03S (bispecific antibody)
heavy: EVQLVESGGGLVQPGGSLRLSCAASGFTFTDYYMSWVRQAPGKGLEWLGFIRNKANGYTTEYSASVKGRFTISRDNSKNTLYLQMNSLRAEDTAVYYCARDNWFAYWGQGTLVTVSSASTKGPSVFPLAPCSRSTSESTAALGCLVKDYFPEPVTVSWNSGALTSGVHTFPAVLQSSGLYSLSSVVTVPSSNFGTQTYTCNVDHKPSNTKVDKTVERKCCVECPPCPAPPVAGPSVFLFPPKPKDTLMISRTPEVTCVVVDVSHEDPEVQFNWYVDGVEVHNAKTKPREEQFNSTFRVVSVLTVVHQDWLNGKEYKCKVSNKGLPAPIEKTISKTKGQPREPQVYTLPPSREEMTKNQVSLTCLVKGFYPSDIAVEWESNGQPENNYKTTPPMLDSDGSFFLYSKLTVDKSRWQQGNVFSCSVMHEALHNHYTQKSLSLSPGKGGGGSGGGGSQVQLVQSGAEVKKPGSSVKVSCKASGFTFTDYKIHWVRQAPGQCLEWMGYINPNSGYSTYASKFQGRVTITADKSTSTAYMELSSLRSEDTAVYYCARLSPGGYYVMDAWGQGTTVTVSSGGGGSGGGGSGGGGSDIQMTQSPSSLSASVGDRVTITCRASQGINNYLNWYQQKPGKAPKLLIYNTNNLQTGVPSRFSGSGSGTEFTLTISSLQPEDEATYYCLQHNSFPTFGQCTKLEIKRT
light: DIQMTQSPSSLSASVGDRVTITCKSSQSLLASGNQNNYLAWYQQKPGKAPKMLIIWASTRVSGVPSRFSGSGSGTDFTLTISSLQPEDFATYYCQQSYSRPYTFGQGTKVEIKRTVAAPSVFIFPPSDEQLKSGTASVVCLLNNFYPREAKVQWKVDNALQSGNSQESVTEQDSKDSTYSLSSTLTLSKADYEKHKVYACEVTHQGLSSPVTKSFNRGEC

From patent US20140302029A1 (SAMSUNG ELECTRONICS, published 2014)
